In article PMC6318328 (2019):
Where no end group is shown, it is not given here. [ ]: non-standard residue; d: D form. Lys(Me3) = C[N+](C)(C)CCCC[C@H](N)C(=O)O; Arg(Me) = CNC(=N)NCCC[C@H](N)C(=O)O

Tests used:
Experiment in all cases: ITC
MLL4_(ePHD6)_(1475–1564) = biological target: T1, MLL4_(ePHD6)_(1475–1564) (human, UniProt O14686 1475-1564)
T1 chain: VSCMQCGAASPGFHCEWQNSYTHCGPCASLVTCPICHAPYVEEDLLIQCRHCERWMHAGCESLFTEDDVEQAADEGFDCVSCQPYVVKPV

MLL3 ePHD6 I1100L = biological target: T2, MLL3 ePHD6 I1100L (human, UniProt Q8NEZ4 1055-1144, I1100 of MLL3 to leucine)
T2 sequence: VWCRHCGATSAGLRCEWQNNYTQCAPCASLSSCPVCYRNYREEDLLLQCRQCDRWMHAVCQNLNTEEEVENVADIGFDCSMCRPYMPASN

MLL3 ePHD6 E1097A = biological target: T3, MLL3 ePHD6 E1097A (human, UniProt Q8NEZ4 1055-1144, E1097A)
T3 sequence: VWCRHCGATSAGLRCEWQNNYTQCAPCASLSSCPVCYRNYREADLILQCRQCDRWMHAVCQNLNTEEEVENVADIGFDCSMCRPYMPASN

MLL3_(ePHD6)_(1055–1144) = biological target: T4, MLL3_(ePHD6)_(1055–1144) (human, UniProt Q8NEZ4 1055-1144)
T4 chain: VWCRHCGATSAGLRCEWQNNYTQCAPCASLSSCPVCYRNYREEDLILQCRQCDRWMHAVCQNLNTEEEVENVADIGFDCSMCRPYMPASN

| Binder | Kd (MLL4_(ePHD6)_(1475–1564)) [µM] | Kd (MLL3 ePHD6 I1100L) [µM] | Kd (MLL3 ePHD6 E1097A) [µM] | Kd (MLL3_(ePHD6)_(1055–1144)) [µM] |
| --- | --- | --- | --- | --- |
| GKGGA[Lys(Me3)]RHRKV [H4K16me3 peptide] | 14 | 34 | – | – |
| GKGGAKRHRKV [histone H4 peptide H4_(11–21)] | – | – | 65 | – |
| GKGGAK[Arg(Me)]HRKV [histone H4 peptide monomethylated at R17] | 70 | – | – | 113 |
